Results: the supplement of paper PMC9112550, “Optimization of the antimicrobial peptide Bac7 by deep mutational scanning” (BMC Biology, 2022)

Tested on: Escherichia coli TOP10
Test: shrunken log2 fold change of peptide-encoding DNA abundance (4.5 h post-induction vs induction); higher = less antimicrobial activity (less host growth inhibition)
Conditions: time post-induction: 4.5 h; library: site-saturation at positions 5, 18, 19, 20
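Note: peptides expressed intracellularly from a pBAD plasmid library in pooled LB shake-flask culture, induced with 0.3% L-arabinose, DNA abundance read by NGS, three biological replicates, DESeq2 with apeglm shrinkage.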

| Sequence | shrunken log2 fold change |
| --- | --- |
| RRIRPRPPRLPRPRPRPKVNPRP | -0.148 |
| RRIRGRPPRLPRPRPRPQHDPRP | -0.000778 |
| RRIRMRPPRLPRPRPRPALVPRP | 0.327 |
| RRIRCRPPRLPRPRPRPCPPPRP | -0.0764 |
| RRIRVRPPRLPRPRPRPSVLPRP | 0.226 |
| RRIRIRPPRLPRPRPRPRGCPRP | 0.255 |
| RRIRARPPRLPRPRPRPFAAPRP | 0.644 |
| RRIRPRPPRLPRPRPRPIPEPRP | 1.27 |
| RRIRDRPPRLPRPRPRPPIGPRP | 0.849 |
| RRIRIRPPRLPRPRPRPLNTPRP | -0.876 |
| RRIRERPPRLPRPRPRPAWSPRP | 0.233 |
| RRIRVRPPRLPRPRPRPDKSPRP | -0.0971 |
| RRIRSRPPRLPRPRPRPLYDPRP | -0.113 |
| RRIRARPPRLPRPRPRPFKNPRP | -0.193 |
| RRIRMRPPRLPRPRPRPTAAPRP | 2.79 |
| RRIRLRPPRLPRPRPRPPWYPRP | -0.312 |
| RRIRYRPPRLPRPRPRPGCFPRP | -0.349 |
| RRIRFRPPRLPRPRPRPPMDPRP | -0.155 |
| RRIRKRPPRLPRPRPRPQESPRP | -0.00973 |
| RRIRWRPPRLPRPRPRPTRVPRP | 0.825 |
| RRIRMRPPRLPRPRPRPMDEPRP | 2.34 |
| RRIRYRPPRLPRPRPRPFYTPRP | -1.19 |
| RRIRTRPPRLPRPRPRPCGVPRP | -0.175 |
| RRIRNRPPRLPRPRPRPNKQPRP | -0.0266 |
| RRIRKRPPRLPRPRPRPMFVPRP | 0.426 |

| Sequence | shrunken log2 fold change |
| --- | --- |
| RRIRWRPPRLPRPRPRPVESPRP | 0.0647 |
| RRIRGRPPRLPRPRPRPRNNPRP | 0.346 |
| RRIRKRPPRLPRPRPRPCWWPRP | 0.284 |
| RRIRKRPPRLPRPRPRPRQAPRP | 1.79 |
| RRIRGRPPRLPRPRPRPHYEPRP | -0.21 |
| RRIRLRPPRLPRPRPRPMWHPRP | 0.203 |
| RRIRRRPPRLPRPRPRPGKRPRP | 0.363 |
| RRIRIRPPRLPRPRPRPRFGPRP | 0.174 |
| RRIRTRPPRLPRPRPRPWWPPRP | -0.0247 |
| RRIRLRPPRLPRPRPRPMKDPRP | -0.111 |
| RRIRWRPPRLPRPRPRPRNVPRP | -0.0411 |
| RRIRPRPPRLPRPRPRPQQTPRP | 0.183 |
| RRIRPRPPRLPRPRPRPSNGPRP | -0.113 |
| RRIRKRPPRLPRPRPRPVINPRP | -0.0513 |
| RRIRIRPPRLPRPRPRPSWSPRP | -0.458 |
| RRIRKRPPRLPRPRPRPGIGPRP | 0.39 |
| RRIRMRPPRLPRPRPRPYDMPRP | -0.0585 |
| RRIRVRPPRLPRPRPRPQAFPRP | 0.0753 |
| RRIRFRPPRLPRPRPRPYKPPRP | 0.108 |
| RRIRPRPPRLPRPRPRPAHIPRP | -0.205 |
| RRIRYRPPRLPRPRPRPTVWPRP | 0.385 |
| RRIRPRPPRLPRPRPRPWGNPRP | -0.225 |
| RRIRRRPPRLPRPRPRPNRVPRP | -0.0133 |
| RRIRMRPPRLPRPRPRPIVLPRP | -0.0572 |
| RRIRARPPRLPRPRPRPGHPPRP | 0.543 |

| Sequence | shrunken log2 fold change |
| --- | --- |
| RRIRMRPPRLPRPRPRPGMRPRP | 1.54 |
| RRIRMRPPRLPRPRPRPTQDPRP | 1.24 |
| RRIRVRPPRLPRPRPRPRVKPRP | -0.221 |
| RRIRVRPPRLPRPRPRPRGYPRP | -0.068 |
| RRIRHRPPRLPRPRPRPMHVPRP | -0.0591 |
| RRIRCRPPRLPRPRPRPAYAPRP | 0.00565 |
| RRIRHRPPRLPRPRPRPEWDPRP | 0.00396 |
| RRIRTRPPRLPRPRPRPYNNPRP | -0.429 |
| RRIRQRPPRLPRPRPRPQFFPRP | -0.122 |
| RRIRVRPPRLPRPRPRPEGSPRP | 0.464 |
| RRIRHRPPRLPRPRPRPWHWPRP | -0.135 |
| RRIRCRPPRLPRPRPRPIQIPRP | -0.0558 |
| RRIRWRPPRLPRPRPRPDWRPRP | -0.0316 |
| RRIRYRPPRLPRPRPRPAGTPRP | -0.0595 |
| RRIRDRPPRLPRPRPRPWWAPRP | 0.61 |
| RRIRIRPPRLPRPRPRPVQKPRP | 0.0154 |
| RRIRDRPPRLPRPRPRPNELPRP | -0.0493 |
| RRIRFRPPRLPRPRPRPGGMPRP | -0.0381 |
| RRIRWRPPRLPRPRPRPRYRPRP | 0.124 |
| RRIRQRPPRLPRPRPRPFAQPRP | -0.0906 |
| RRIRLRPPRLPRPRPRPTPWPRP | 0.381 |
| RRIRQRPPRLPRPRPRPLCCPRP | -0.382 |
| RRIRTRPPRLPRPRPRPQYCPRP | -0.0968 |
| RRIRYRPPRLPRPRPRPPWNPRP | -0.161 |
| RRIRTRPPRLPRPRPRPLGRPRP | 2.94 |

| Sequence | shrunken log2 fold change |
| --- | --- |
| RRIRVRPPRLPRPRPRPSNWPRP | -0.331 |
| RRIRSRPPRLPRPRPRPRIQPRP | -0.00704 |
| RRIRTRPPRLPRPRPRPRRRPRP | 0.411 |
| RRIRLRPPRLPRPRPRPFIRPRP | -0.245 |
| RRIRCRPPRLPRPRPRPQYGPRP | -0.142 |
| RRIRIRPPRLPRPRPRPASFPRP | -0.167 |
| RRIRIRPPRLPRPRPRPLDIPRP | -0.216 |
| RRIRSRPPRLPRPRPRPWMTPRP | -0.000334 |
| RRIRCRPPRLPRPRPRPHRRPRP | -0.167 |
| RRIRYRPPRLPRPRPRPYNTPRP | -1.88 |
| RRIRMRPPRLPRPRPRPAPAPRP | 1.53 |
| RRIRVRPPRLPRPRPRPEDNPRP | -0.184 |
| RRIRDRPPRLPRPRPRPLHTPRP | -0.0544 |
| RRIRNRPPRLPRPRPRPDNHPRP | -0.0531 |
| RRIRHRPPRLPRPRPRPNYHPRP | -0.83 |
| RRIRMRPPRLPRPRPRPILQPRP | 0.133 |
| RRIRVRPPRLPRPRPRPGQRPRP | 0.0272 |
| RRIRQRPPRLPRPRPRPVSHPRP | -0.0425 |
| RRIRVRPPRLPRPRPRPRTYPRP | -0.309 |
| RRIRCRPPRLPRPRPRPQKVPRP | -0.127 |
| RRIRWRPPRLPRPRPRPFHVPRP | -0.0106 |
| RRIRGRPPRLPRPRPRPMNFPRP | -0.0655 |
| RRIRERPPRLPRPRPRPETLPRP | -0.0176 |
| RRIRKRPPRLPRPRPRPPNYPRP | -0.19 |
| RRIRVRPPRLPRPRPRPQFPPRP | -0.28 |

| Sequence | shrunken log2 fold change |
| --- | --- |
| RRIRVRPPRLPRPRPRPKMQPRP | 0.0937 |
| RRIRYRPPRLPRPRPRPWSKPRP | -0.0945 |
| RRIRERPPRLPRPRPRPWYHPRP | -0.588 |
| RRIRPRPPRLPRPRPRPTDEPRP | -0.128 |
| RRIRTRPPRLPRPRPRPNLDPRP | 0.0338 |
| RRIRQRPPRLPRPRPRPATRPRP | 0.616 |
| RRIRHRPPRLPRPRPRPYMPPRP | -0.402 |
| RRIRERPPRLPRPRPRPAAVPRP | 0.057 |
| RRIRVRPPRLPRPRPRPRYHPRP | -0.36 |
| RRIRIRPPRLPRPRPRPSFQPRP | -0.329 |
| RRIRGRPPRLPRPRPRPTKTPRP | 0.0741 |
| RRIRYRPPRLPRPRPRPKIVPRP | -0.188 |
| RRIRMRPPRLPRPRPRPTHGPRP | 0.188 |
| RRIRNRPPRLPRPRPRPTGDPRP | 0.258 |
| RRIRRRPPRLPRPRPRPNSPPRP | -0.0118 |
| RRIRWRPPRLPRPRPRPGYIPRP | 0.226 |
| RRIRGRPPRLPRPRPRPVYFPRP | -0.0244 |
| RRIRNRPPRLPRPRPRPHVIPRP | -0.205 |
| RRIRIRPPRLPRPRPRPAIFPRP | -0.102 |
| RRIRMRPPRLPRPRPRPYNNPRP | -0.4 |
| RRIRVRPPRLPRPRPRPDFLPRP | -0.189 |
| RRIRQRPPRLPRPRPRPVVPPRP | -0.0392 |
| RRIRMRPPRLPRPRPRPEPGPRP | 2.73 |
| RRIRMRPPRLPRPRPRPDAWPRP | 2.59 |
| RRIRYRPPRLPRPRPRPQHSPRP | -0.978 |

| Sequence | shrunken log2 fold change |
| --- | --- |
| RRIRTRPPRLPRPRPRPAQNPRP | 0.323 |
| RRIRQRPPRLPRPRPRPPFIPRP | -0.0092 |
| RRIRGRPPRLPRPRPRPPWVPRP | 0.753 |
| RRIRWRPPRLPRPRPRPASYPRP | 0.151 |
| RRIRYRPPRLPRPRPRPGYNPRP | -0.0489 |
| RRIRCRPPRLPRPRPRPVFPPRP | -0.15 |
| RRIRCRPPRLPRPRPRPWMRPRP | 0.19 |
| RRIRARPPRLPRPRPRPQYWPRP | -0.167 |
| RRIRRRPPRLPRPRPRPECAPRP | 0.426 |
| RRIRPRPPRLPRPRPRPVSGPRP | 0.584 |
| RRIRVRPPRLPRPRPRPGLSPRP | 0.32 |
| RRIRPRPPRLPRPRPRPHPNPRP | 0.00254 |
| RRIRFRPPRLPRPRPRPRYDPRP | -0.408 |
| RRIRLRPPRLPRPRPRPWVDPRP | -0.0575 |
| RRIRARPPRLPRPRPRPTMMPRP | 0.496 |
| RRIRHRPPRLPRPRPRPRHAPRP | 0.164 |
| RRIRTRPPRLPRPRPRPHASPRP | -0.033 |
| RRIRARPPRLPRPRPRPFNFPRP | -0.0477 |
| RRIRGRPPRLPRPRPRPQQMPRP | 0.287 |
| RRIRMRPPRLPRPRPRPTYHPRP | -0.242 |
| RRIRNRPPRLPRPRPRPTFDPRP | 0.0109 |
| RRIRARPPRLPRPRPRPCYQPRP | -0.232 |
| RRIRVRPPRLPRPRPRPMITPRP | 0.104 |
| RRIRWRPPRLPRPRPRPWIPPRP | -0.0989 |
| RRIRHRPPRLPRPRPRPSISPRP | -0.727 |
